Series [1] concerns the target T1, BtKdsB (2-keto-3-deoxy-D-manno-octulosonate cytidylyltransferase) (Burkholderia thailandensis, UniProt Q2T0K3).
T1 construct: gene kdsB; native KdsB with N-terminal tag MHHHHHH GGGGG
In words: biochemical.

The target in series [2] is T2, PaKdsB (2-keto-3-deoxy-D-manno-octulosonate cytidylyltransferase) (Pseudomonas aeruginosa, UniProt Q9HZM5).
T2 construct: gene kdsB; native KdsB with N-terminal tag MHHHHHH EFSQQDSD
T2 sequence (Q9HZM5 1-254): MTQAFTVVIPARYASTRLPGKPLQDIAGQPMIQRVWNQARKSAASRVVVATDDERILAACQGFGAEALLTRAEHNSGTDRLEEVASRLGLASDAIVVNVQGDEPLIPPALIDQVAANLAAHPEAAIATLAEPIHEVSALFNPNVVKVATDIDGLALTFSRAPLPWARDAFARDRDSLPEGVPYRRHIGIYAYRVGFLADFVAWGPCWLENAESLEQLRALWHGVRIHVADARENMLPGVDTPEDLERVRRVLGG
Briefly: malachite green enzyme assay (IC50), inhibition kinetics; increased thermostability. It counts as biochemical. The text has this:
malachite green enzyme assay (IC50), inhibition kinetics; increased thermostability on PaKdsB (2-keto-3-deoxy-D-manno-octulosonate cytidylyltransferase) | The IC50 value determined from the dose-dependent inhibitory curve of Rose Bengal

The test system of series [3] is Nc1ccn([C@@H]2O[C@H](COP(=O)(O)OP(=O)(O)OP(=O)(O)O)[C@@H](O)[C@H]2O)c(=O)n1. Briefly: purified protein.
Series [4] deals with O=C(O)C(=O)C[C@@H](O)[C@@H](O)[C@H](O)[C@H](O)CO. In words: purified protein.
Substrate in series [5]: Nc1ccn([C@@H]2O[C@H](COP(=O)(O)OP(=O)(O)OP(=O)(O)O)[C@@H](O)[C@H]2O)c(=O)n1
Briefly: steady-state kinetics (Km), malachite green assay. It counts as biochemical, Pseudomonas aeruginosa. Particulars: KDO ([…]), Mg2+ ([…] MgCl2) nucleotide binding site.

Substrate in series [6]: O=C(O)C(=O)C[C@@H](O)[C@@H](O)[C@H](O)[C@H](O)CO
In words: steady-state kinetics (Km), malachite green assay. It counts as biochemical, Pseudomonas aeruginosa. To be noted: CTP ([…]), Mg2+ ([…] MgCl2) substrate binding site.

In article PMC7717453, “A study of Rose Bengal against a 2-keto-3-deoxy-D-manno-octulosonate cytidylyltransferase as an antibiotic candidate” (Journal of Enzyme Inhibition and Medicinal Chemistry, 2020) one finds IC50, Km and kcat data, which are given here for three molecules.

By IC50 is commonly meant the concentration at which inhibition is half-maximal. A high value points to lower potency. In general, Km refers to the substrate concentration at which the rate is half of its maximum. The term kcat denotes the number of substrate molecules converted per active site and unit of time at saturation.

T1 sequence (Q2T0K3 whole entry): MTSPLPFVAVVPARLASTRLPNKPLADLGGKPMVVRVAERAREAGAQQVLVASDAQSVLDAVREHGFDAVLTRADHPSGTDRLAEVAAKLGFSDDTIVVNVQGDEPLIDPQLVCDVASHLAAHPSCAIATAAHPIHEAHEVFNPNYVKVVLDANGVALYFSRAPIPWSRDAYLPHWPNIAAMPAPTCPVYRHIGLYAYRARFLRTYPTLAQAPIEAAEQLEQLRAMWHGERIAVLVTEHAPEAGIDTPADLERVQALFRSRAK

`O=C1OC2(c3cc(I)c(O)c(I)c3Oc3c2cc(I)c(O)c3I)c2c(Cl)c(Cl)c(Cl)c(Cl)c21` [Rose Bengal]: the half-inhibitory concentration (IC50) turned out to be 7.24 µM in series [1] and 14.7 µM in series [2].

Consider “BtKdsB (2-keto-3-deoxy-D-manno-octulosonate cytidylyltransferase) (Burkholderia thailandensis E264)”, for which, in series [3], the Km worked out at 123.9 ± 34 µM and the turnover number (kcat) came out at 0.142 ± 0.0193 s⁻¹. Further, in series [4], the Km came to 56 ± 11 µM and the kcat came out at 0.116 ± 0.0062 s⁻¹.

B1: PaKdsB (2-keto-3-deoxy-D-manno-octulosonate cytidylyltransferase) (Pseudomonas aeruginosa PAO1) (protein)
chain: MTQAFTVVIPARYASTRLPGKPLQDIAGQPMIQRVWNQARKSAASRVVVATDDERILAACQGFGAEALLTRAEHNSGTDRLEEVASRLGLASDAIVVNVQGDEPLIPPALIDQVAANLAAHPEAAIATLAEPIHEVSALFNPNVVKVATDIDGLALTFSRAPLPWARDAFARDRDSLPEGVPYRRHIGIYAYRVGFLADFVAWGPCWLENAESLEQLRALWHGVRIHVADARENMLPGVDTPEDLERVRRVLGG
notes: native KdsB with N-terminal tag MHHHHHH EFSQQDSD
Turning to B1, the Michaelis constant (Km) stood at 98.3 ± 30 µM in series [5] and 61 ± 11 µM in series [6]. Besides, the figures for the kcat in series [5] and in series [6] were 0.132 ± 0.0184 s⁻¹ and 0.0758 ± 0.00383 s⁻¹, respectively.
